According to US20220031857A1:

How the values were obtained:
[1] = molecular target: recombinant mouse TfR1 (transferrin receptor 1) (mouse) (UniProt Q62351); experiment: Octet, mouse TfR1 on anti-His biosensors, analyte 10 nM, PBS pH 7.2
[2] = molecular target: recombinant human TfR1 (transferrin receptor 1) (human) (UniProt P02786); experiment: ELISA, plate coated with 1 µg/ml recombinant human TfR1, purified VNAR-Fc titrated, 4-parameter fit
[3] = molecular target: recombinant human TfR1 (transferrin receptor 1) (human) (UniProt P02786); experiment: Octet, human TfR1 immobilised on biosensors; row buffer (no first antibody), column cont. (taken as the control VNAR F02)
[4] = molecular target: recombinant mouse TfR1 (transferrin receptor 1) (mouse) (UniProt Q62351); experiment: Octet, mouse TfR1 immobilised on biosensors; row buffer (no first antibody), column cont. (taken as the control VNAR F02)
[5] = molecular target: recombinant mouse TfR1 (transferrin receptor 1) (mouse) (UniProt Q62351); experiment: ELISA, plate coated with 1 µg/ml recombinant mouse TfR1, purified VNAR-Fc titrated, 4-parameter fit
[6] = molecular target: recombinant human TfR1 (transferrin receptor 1) (human) (UniProt P02786); experiment: Octet, human TfR1 immobilised; 8D3 as first antibody, which does not bind human TfR1 (grey column); white cell; cont. taken as the control VNAR F02
[7] = molecular target: recombinant human TfR1 (transferrin receptor 1) (human) (UniProt P02786); experiment: SPR (Biacore), single-cycle kinetics, His-tagged TfR1 captured, VNAR-Fc injected
[8] = molecular target: recombinant mouse TfR1 (transferrin receptor 1) (mouse) (UniProt Q62351); experiment: as above
[9] = molecular target: recombinant mouse TfR1 (transferrin receptor 1) (mouse) (UniProt Q62351); experiment: ELISA on coated mouse TfR1, purified VNAR-Fc
[10] = molecular target: recombinant human TfR1 (transferrin receptor 1) (human) (UniProt P02786); experiment: ELISA on coated human TfR1, purified VNAR-Fc
[11] = molecular target: recombinant mouse TfR1 (transferrin receptor 1) (mouse) (UniProt Q62351); experiment: Octet, mouse TfR1 on anti-His biosensors, analyte 10 nM, PBS pH 6.0

Sequence of recombinant human TfR1 (transferrin receptor 1) (human) (P02786 89-760 limits assumed): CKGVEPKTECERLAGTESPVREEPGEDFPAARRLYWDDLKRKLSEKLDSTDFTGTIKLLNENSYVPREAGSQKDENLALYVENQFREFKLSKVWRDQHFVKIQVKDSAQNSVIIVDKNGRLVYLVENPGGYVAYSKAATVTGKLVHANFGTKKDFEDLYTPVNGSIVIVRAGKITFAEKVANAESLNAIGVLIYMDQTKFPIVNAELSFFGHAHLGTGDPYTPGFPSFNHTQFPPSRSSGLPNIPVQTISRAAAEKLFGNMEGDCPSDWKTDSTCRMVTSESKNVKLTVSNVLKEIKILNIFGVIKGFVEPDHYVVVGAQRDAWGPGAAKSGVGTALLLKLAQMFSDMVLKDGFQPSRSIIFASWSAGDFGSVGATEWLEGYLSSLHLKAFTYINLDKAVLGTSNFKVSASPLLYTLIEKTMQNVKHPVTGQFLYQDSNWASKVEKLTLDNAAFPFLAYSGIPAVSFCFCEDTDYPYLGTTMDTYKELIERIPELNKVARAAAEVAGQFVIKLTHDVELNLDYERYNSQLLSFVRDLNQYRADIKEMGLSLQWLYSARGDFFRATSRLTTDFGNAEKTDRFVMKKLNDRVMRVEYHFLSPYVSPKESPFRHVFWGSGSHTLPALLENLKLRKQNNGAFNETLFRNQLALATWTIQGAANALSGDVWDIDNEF
Sequence of recombinant mouse TfR1 (transferrin receptor 1) (mouse) (Q62351 89-763 limits assumed): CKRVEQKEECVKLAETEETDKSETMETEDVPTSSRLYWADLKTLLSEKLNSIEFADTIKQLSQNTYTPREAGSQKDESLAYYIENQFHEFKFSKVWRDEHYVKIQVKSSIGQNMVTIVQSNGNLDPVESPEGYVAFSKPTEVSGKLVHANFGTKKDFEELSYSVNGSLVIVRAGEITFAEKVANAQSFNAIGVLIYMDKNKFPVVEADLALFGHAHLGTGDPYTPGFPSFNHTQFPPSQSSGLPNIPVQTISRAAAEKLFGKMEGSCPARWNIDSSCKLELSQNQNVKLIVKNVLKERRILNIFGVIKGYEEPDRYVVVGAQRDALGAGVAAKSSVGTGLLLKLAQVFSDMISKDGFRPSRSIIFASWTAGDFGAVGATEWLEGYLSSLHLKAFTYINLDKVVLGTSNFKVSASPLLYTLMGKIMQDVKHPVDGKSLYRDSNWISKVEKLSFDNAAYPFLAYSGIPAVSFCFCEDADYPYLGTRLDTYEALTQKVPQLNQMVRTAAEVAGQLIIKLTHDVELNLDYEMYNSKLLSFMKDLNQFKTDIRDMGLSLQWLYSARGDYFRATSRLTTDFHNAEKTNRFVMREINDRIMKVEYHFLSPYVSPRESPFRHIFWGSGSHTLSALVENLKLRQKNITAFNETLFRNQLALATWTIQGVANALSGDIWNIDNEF

Substance: F02 control VNAR-Fc (Fc fusion)
- Kd [1]: 0.294 nM
- koff [1]: 9.86e-05 s⁻¹
- kon [1]: 335000 M⁻¹ s⁻¹
- EC50 [2]: 3.69 nM
- Octet signal as second antibody after buffer [3]: 0.386
- Octet signal as second antibody after buffer [4]: 0.194
- EC50 [5]: 38.2 nM
- Octet signal as second antibody after 8D3 [6]: 0.381
- Kd [7]: 0.969 nM
- koff [7]: 0.00011 s⁻¹
- kon [7]: 113000 M⁻¹ s⁻¹
- Kd [8]: 1.46 nM
- koff [8]: 0.00016 s⁻¹
- kon [8]: 109000 M⁻¹ s⁻¹
- EC50 [9]: 10 nM
- EC50 [10]: 1 nM
- Kd [11]: 0.344 nM
- koff [11]: 0.000147 s⁻¹
- kon [11]: 426000 M⁻¹ s⁻¹
